# From article PMC6697748, “Ca^2+-regulated Ca^2+ channels with an RCK gating ring control plant symbiotic associations” (Nature Communications, 2019)
# B1: LjCASTOR soluble domain (residues 312-853) (domain or fragment, Lotus japonicus, UniProt Q5H8A6 312-853, looked up)
# chain: KGKSEVVEQNHTLILGWSDKLGSLLNQLAIANESLGGGTIAVMAERDKEDMELDIGKMEFDFKGTSVICRSGSPLILADLKKVSVSKARTIIVLAEDGNADQSDARALRTVLSLTGVKEGLRGHIVVEMSDLDNEVLVKLVGGDLVETVVAHDVIGRLMIQCARQPGLAQIWEDILGFENCEFYIKRWPQLDGMLFEDVLISFPAAIPCGIKVASYGGKIILNPDDSYVLQEGDEVLVIAEDDDTYAPAPLPMVRRGSLPKDFVYPKSPERILFCGWRRDMEDMITVLDASLAPDSELWMFNDVPEKEREKKLIDGGLDISRLENISLVNREGNAVIRRHLESLPLESFDSILILADESVEDSAIQADSRSLATLLLIRDIQARRLPYVAMASQTQGGNFSKGSWIGEMKQASDKTVIISEILDPRTKNLLSMSKISDYVLSNELVSMALAMVAEDRQINDVLEELFAEEGNEMHIRQADIYLREGEEMSFYEIMLRARQRREILIGYRLANAERAVINPPAKTGRRKWSLKDVFVVITEKE
# notes: CASTOR ion channel from Lotus japonicus, soluble domain after the transmembrane region, residues 312-853; two tandem RCK domains (RCK1 320-552, linker 553-580, RCK2 581-853); Cloned into pQE60 with a C-terminal hexahistidine tag; no removal of the tag is described; A selenomethionine-substituted form was used for phasing only; Residues 699-726 have no electron density; also called LjCASTOR RCK …
# Target: the molecule itself
# Assay: crystal structure; Ca2+-bound state: protein purified with 1 mM CaCl2 in 50 mM Tris-HCl pH 8.0, 250 mM NaCl; crystals in 21% PEG 550 MME, 50 mM MgAc2, 100 mM Tris pH 8.2, 20 °C; space group I4, one subunit per asymmetric unit, tetramer by crystallographic fourfold; 1.6 Å
protein,measurement,value
B1,stoichiometry N,4
